Publication PMC6748615
Like-named read-outs stand apart in the source and are kept apart here.

What was measured:
[1] = target: biotinylated human FcRn (human) (UniProt P55899); assay: FcRn affinity chromatography
[2] = target: Human CD16a (FcγRIIIa-V158) (human) (UniProt P08637); assay: SPR
[3] = target: biotinylated human FcRn (human) (UniProt P55899); assay: SPR
rat FcRn (rat) = rat FcRn (rat) (UniProt P13599); assay: SPR
[4] = target: biotinylated human FcRn (human) (UniProt P55899); assay: SPR; remark: listed apart in the source
[5] = target: biotinylated human FcRn (human) (UniProt P55899)
[6] = target: biotinylated cynomolgus FcRn (cynomolgus) (UniProt Q8SPV9)
mAb1 M252Y = assay: BLI
mAb1 N434F = assay: BLI
mAb1 N434Y = assay: BLI

Sequence of UniProt Q8SPV9 (Q8SPV9 24-297, chain 1 of 2): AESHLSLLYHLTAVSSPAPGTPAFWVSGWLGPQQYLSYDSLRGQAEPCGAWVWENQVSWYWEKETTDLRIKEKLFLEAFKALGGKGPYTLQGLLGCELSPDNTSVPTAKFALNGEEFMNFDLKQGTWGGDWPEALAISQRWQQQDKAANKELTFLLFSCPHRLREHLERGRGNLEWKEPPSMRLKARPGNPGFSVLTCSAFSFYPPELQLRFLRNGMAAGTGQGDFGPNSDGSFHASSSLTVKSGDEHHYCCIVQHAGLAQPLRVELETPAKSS
Sequence of UniProt Q8SPV9 (Q8SPW0 21-119, chain 2 of 2, further chain): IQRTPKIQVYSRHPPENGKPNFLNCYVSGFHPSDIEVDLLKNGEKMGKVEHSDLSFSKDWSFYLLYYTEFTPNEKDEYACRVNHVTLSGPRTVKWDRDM

| elution pH [1] | Kd [3] | koff [3] | kon [3] | steady state RU, pH 7.4 [3] | Kd (rat FcRn (rat)) | steady state RU, pH 7.4 (rat FcRn (rat)) | Molecule | other results |
| --- | --- | --- | --- | --- | --- | --- | --- | --- |
| 7.94 pH | 1780 nM | 0.144 s⁻¹ | 83700 M⁻¹ s⁻¹ | 13.9 RU | 77 nM | 23.6 RU | mAb1 AAA (T307A/E380A/N434A) (antibody) | affinity fold change vs WT [2]: 0.89 fold |
| 7.18 pH |  |  |  |  | 6310 nM |  | mAb1 E380C (antibody) |  |
| 7.33 pH |  |  |  |  | 149 nM |  | mAb1 K288D (antibody) |  |
| 7.39 pH |  |  |  |  | 190 nM |  | mAb1 K288N (antibody) |  |
| 8.29 pH | 272 nM | 0.052 s⁻¹ | 193000 M⁻¹ s⁻¹ | 18.3 RU | 74 nM | 24.8 RU | mAb1 LS (M428L/N434S) (antibody) | steady state RU, pH 7.4 [4]: 18.5 RU; affinity fold change vs WT [2]: 1.04 fold |
| 7.88 pH | 3100 nM |  |  |  | 25 nM |  | mAb1 M252Y (antibody) |  |
| 7.92 pH | 232 nM | 0.872 s⁻¹ | 37600 M⁻¹ s⁻¹ | 10.7 RU | 9.54 nM | 39.1 RU | mAb1 MDQN (DQ: T256D/T307Q) (antibody) | steady state RU [2]: 103 RU |
| 7.92 pH | 169 nM | 0.892 s⁻¹ | 52900 M⁻¹ s⁻¹ | 12.2 RU | 8.24 nM | 42.1 RU | mAb1 MDWN (DW: T256D/T307W) (antibody) | steady state RU [2]: 126 RU |
|  | 165 nM |  |  | 20.1 RU | 26 nM | 54.9 RU | mAb1 N434F (antibody) |  |
| 7.56 pH |  |  |  |  | 194 nM |  | mAb1 N434P (antibody) |  |
| 8.46 pH | 137 nM | 0.052 s⁻¹ | 359000 M⁻¹ s⁻¹ | 22.6 RU | 23 nM | 47 RU | mAb1 N434Y (antibody) | affinity fold change vs WT [2]: 1.41 fold |
| 7.82 pH | 6700 nM |  |  |  | 86 nM |  | mAb1 T256D (antibody) |  |
| 7.63 pH |  |  |  |  | 113 nM |  | mAb1 T256E (antibody) |  |
| 7.61 pH |  |  |  |  | 132 nM |  | mAb1 T307A (antibody) |  |
| 7.58 pH | 8130 nM | 0.298 s⁻¹ | 43700 M⁻¹ s⁻¹ |  | 141 nM |  | mAb1 T307E (antibody) |  |
| 7.61 pH |  |  |  |  | 131 nM |  | mAb1 T307F (antibody) |  |
| 7.4 pH |  |  |  |  | 279 nM |  | mAb1 T307M (antibody) |  |

| elution pH [1] | Kd [3] | koff [3] | kon [3] | steady state RU, pH 7.4 [3] | Kd (rat FcRn (rat)) | steady state RU, pH 7.4 (rat FcRn (rat)) | Molecule | other results |
| --- | --- | --- | --- | --- | --- | --- | --- | --- |
| 7.86 pH | 5720 nM | 0.215 s⁻¹ | 39600 M⁻¹ s⁻¹ |  | 58 nM |  | mAb1 T307Q (antibody) | affinity fold change vs WT [2]: 1 fold |
| 7.75 pH | 8740 nM |  |  |  | 111 nM |  | mAb1 T307W (antibody) |  |
| 7.37 pH | 2380 nM | 0.386 s⁻¹ | 162000 M⁻¹ s⁻¹ |  | 207 nM |  | mAb1 WT (model IgG1) (antibody) | affinity fold change vs WT [2]: 1 fold |
| 7.33 pH |  |  |  |  | 131 nM |  | mAb1 Y436H (antibody) |  |
| 7.22 pH |  |  |  |  | 233 nM |  | mAb1 Y436N (antibody) |  |
| 7.39 pH |  |  |  |  | 1140 nM |  | mAb1 Y436W (antibody) |  |
| 8.51 pH | 115 nM | 0.282 s⁻¹ | 24600 M⁻¹ s⁻¹ | 19.8 RU | 5.12 nM | 65.2 RU | mAb1 YDQN (M252Y/T256D/T307Q) (antibody) | steady state RU [2]: 59.2 RU |
| 8.29 pH | 93.6 nM | 0.593 s⁻¹ | 63300 M⁻¹ s⁻¹ | 9.7 RU | 5.86 nM | 56 RU | mAb1 YDTN (YD: M252Y/T256D) (antibody) | steady state RU [2]: 67.7 RU |
| 8.12 pH | 218 nM | 0.405 s⁻¹ | 18500 M⁻¹ s⁻¹ | 15.2 RU | 7.76 nM | 61.8 RU | mAb1 YEQN (M252Y/T256E/T307Q) (antibody) | steady state RU [2]: 43.5 RU |
| 7.83 pH | 128 nM | 0.757 s⁻¹ | 59200 M⁻¹ s⁻¹ | 9.8 RU | 8.43 nM | 55.1 RU | mAb1 YETN (M252Y/T256E) (antibody) | steady state RU [2]: 58.5 RU |
| 8.14 pH | 342 nM |  | 143000 M⁻¹ s⁻¹ | 13.2 RU |  | 53.9 RU | mAb1 YTE (M252Y/S254T/T256E) (antibody) | steady state RU, pH 7.4 [4]: 13.1 RU; affinity fold change vs WT [2]: 0.52 fold |
| 8.14 pH | 118 nM |  | 48300 M⁻¹ s⁻¹ | 15.9 RU | 5.21 nM | 66.1 RU | mAb1 YTWN (M252Y/T307W) (antibody) | steady state RU [2]: 67.5 RU |
|  |  |  |  |  |  |  | mAb2 DQ (T256D/T307Q) (antibody) | plasma elimination half-life t1/2 in hFcRn Tg32 transgenic mice, 2.5 mg/kg i.v. [5]: 24.5 days |
|  |  |  |  |  |  |  | mAb2 DW (T256D/T307W) (antibody) | plasma elimination half-life t1/2 in cynomolgus monkeys, 2.5 mg/kg i.v. [6]: 20.4 days; plasma elimination half-life t1/2 in hFcRn Tg32 transgenic mice, 2.5 mg/kg i.v. [5]: 20.1 days |
|  |  |  |  |  |  |  | mAb2 YD (M252Y/T256D) (antibody) | plasma elimination half-life t1/2 in cynomolgus monkeys, 2.5 mg/kg i.v. [6]: 23.5 days; plasma elimination half-life t1/2 in hFcRn Tg32 transgenic mice, 2.5 mg/kg i.v. [5]: 17.5 days |
|  |  |  |  |  |  |  | rat FcRn (receptor) chain 1: AEPRLPLMYHLAAVSDLSTGLPSFWATGWLGAQQYLTYNNLRQEADPCGAWIWENQVSWYWEKETTDLKSKEQLFLEAIRTLENQINGTFTLQGLLGCELAPDNSSLPTAVFALNGEEFMRFNPRTGNWSGEWPETDIVGNLWMKQPEAARKESEFLLTSCPERLLGHLERGRQNLEWKEPPSMRLKARPGNSGSSVLTCAAFSFYPPELKFRFLRNGLASGSGNCSTGPNGDGSFHAWSLLEVKRGDEHHYQCQVEHEGLAQPLTVDLDSPARSS chain 2: IQKTPQIQVYSRHPPENGKPNFLNCYVSQFHPPQIEIELLKNGKKIPNIEMSDLSFSKDWSFYILAHTEFTPTETDVYACRVKHVTLKEPKTVTWDRDM | fold slower off rate than WT (mAb1 M252Y): > 1.8 fold; fold slower off rate than WT (mAb1 N434F): > 1.8 fold; fold slower off rate than WT (mAb1 N434Y): > 1.8 fold |
